In IntAct's records for PubMed 17405859:

B1: Neuropilin-1 (Rattus norvegicus (Rat)), Q9QWJ9 (parent)
chain: MERGLPLLCATLALALALAGAFRSDKCGGTIKIENPGYLTSPGYPHSYHPSEKCEWLIQAPEPYQRIMINFNPHFDLEDRDCKYDYVEVIDGENEGGRLWGKFCGKIAPSPVVSSGPFLFIKFVSDYETHGAGFSIRYEIFKRGPECSQNYTAPTGVIKSPGFPEKYPNSLECTYIIFAPKMSEIILEFESFDLEQDSNPPGGVFCRYDRLEIWDGFPEVGPHIGRYCGQKTPGRIRSSSGILSMVFYTDSAIAKEGFSANYSVLQSSISEDFKCMEALGMESGEIHSDQITASSQYGTNWSVERSRLNYPENGWTPGEDSYREWIQVDLGLLRFVTAVGTQGAISKETKKKYYVKTYRVDISSNGEDWITLKEGNKAIIFQGNTNPTDVVFGVFPKPLITRFVRIKPASWETGISMRFEVYGCKITDYPCSGMLGMVSGLISDSQITASNQGDRNWMPENIRLVTSRTGWALPPSPHPYINEWLQVDLGDEKIVRGVIIQGGKHRENKVFMRKFKIAYSNNGSDWKMIMDDSKRKAKSFEGNNNYDTPELRAFTPLSTRFIRIYPERATHSGLGLRMELLGCEVEVPTAGPTTPNGNPVDECDDDQANCHSGTGDDFQLTGGTTVLATEKPTIIDSTIQSEFPTYGFNCEFGWGSHKTFCHWEHDSHAQLRWRVLTSKTGPIQDHTGDGNFIYSQADENQKGKVARLVSPVVYSQSSAHCMTFWYHMSGSHVGTLRVKLHYQKPEEYDQLVWMVVGHQGDHWKEGRVLLHKSLKLYQVIFEGEIGKGNLGGIAVDDISINNHIPQEDCAKPTDLDKKNTEIKIDETGSTPGYEEGKGDKNISRKPGNVLKTLDPILITIIAMSALGVLLGAVCGVVLYCACWHNGMSERNLSALENYNFELVDGVKLKKDKLNPQSNYSEA

Variants of: B1
Conditions: with vegfa_human VEGFA

Question: Which “effect of a mutation on the interaction” value does the source give for S346A here?
Answer: disrupting interaction strength

Question: For E348A, which “effect of a mutation on the interaction” value is on record?
Answer: disrupting interaction strength

Question: With T349A as the variant, how does the “effect of a mutation on the interaction” value read?
Answer: disrupting interaction strength
